To fix the notation:
B1: Src-like-adapter 2 (Mus musculus), Q8R4L0 (parent)
chain: MGSLSSRGKTSSPSPSSSGPDQEPVSMQPERHKVTAVALGSFPAGEQARLSLRLGEPLTIISEDGDWWTVQSEVSGREYHMPSVYVAKVAHGWLYEGLSREKAEELLLLPGNPGGAFLIRESQTRRGCYSLSVRLSRPASWDRIRHYRIQRLDNGWLYISPRLTFPSLHALVEHYSELADGICCPLREPCVLQKLGPLPGKDTPPPVTVPTSSLNWKKLDRSLLFLEAPASGEASLLSEGLRESLSSYISLAEDPLDDA

The variants in this assay derive from B1. The settings on record: with flt3_human FLT3, P36888.
flt3_human FLT3, P36888, sequence (P36888 whole entry): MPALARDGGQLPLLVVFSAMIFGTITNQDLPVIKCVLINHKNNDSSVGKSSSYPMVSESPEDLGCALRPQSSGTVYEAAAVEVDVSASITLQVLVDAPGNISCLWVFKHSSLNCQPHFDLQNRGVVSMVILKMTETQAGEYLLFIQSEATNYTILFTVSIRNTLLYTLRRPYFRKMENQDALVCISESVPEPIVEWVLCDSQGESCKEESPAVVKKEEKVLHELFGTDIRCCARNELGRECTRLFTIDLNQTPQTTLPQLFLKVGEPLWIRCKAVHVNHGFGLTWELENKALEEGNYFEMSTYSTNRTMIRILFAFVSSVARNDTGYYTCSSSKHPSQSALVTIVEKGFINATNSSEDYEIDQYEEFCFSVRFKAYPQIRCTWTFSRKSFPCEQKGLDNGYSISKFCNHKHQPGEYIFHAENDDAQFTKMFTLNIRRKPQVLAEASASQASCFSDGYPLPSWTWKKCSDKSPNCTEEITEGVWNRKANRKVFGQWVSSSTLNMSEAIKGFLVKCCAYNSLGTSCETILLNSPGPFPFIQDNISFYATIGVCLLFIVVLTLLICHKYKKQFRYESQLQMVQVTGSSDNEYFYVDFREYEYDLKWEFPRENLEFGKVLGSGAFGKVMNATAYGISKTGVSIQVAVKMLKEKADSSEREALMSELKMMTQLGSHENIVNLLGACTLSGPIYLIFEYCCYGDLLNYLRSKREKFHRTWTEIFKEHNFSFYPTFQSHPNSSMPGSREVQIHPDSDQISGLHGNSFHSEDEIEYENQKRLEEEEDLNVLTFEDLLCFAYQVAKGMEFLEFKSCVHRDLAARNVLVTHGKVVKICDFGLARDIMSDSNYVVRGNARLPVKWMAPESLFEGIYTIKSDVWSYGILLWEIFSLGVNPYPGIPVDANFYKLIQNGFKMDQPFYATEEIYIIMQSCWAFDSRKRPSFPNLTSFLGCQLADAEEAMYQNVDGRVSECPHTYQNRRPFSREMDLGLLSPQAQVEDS
Take MGSLSSRGKTSSPSPSSSGPDQEPVSMQPERHKVTAVALGSFPAGEQARLSLRLGEPLTIISEDGDWWTVQSEVSGREYHMPSVYVAKVAHGWLYEGLSREKAEELLLLPGNPGGAFLIEESQTRRGCYSLSVRLSRPASWDRIRHYRIQRLDNGWLYISPRLTFPSLHALVEHYSELADGICCPLREPCVLQKLGPLPGKDTPPPVTVPTSSLNWKKLDRSLLFLEAPASGEASLLSEGLRESLSSYISLAEDPLDDA [R120E]: the “effect of a mutation on the interaction” value is on record as “disrupting interaction”.

The values are drawn from IntAct's records for PubMed 27458164.
